# Laboratory results: patent EP4786496A1 (Nanjing Iaso Biotechnology Co., Ltd., dated 2026)
# T1: BAFF-R on the surface of BAFF-R-positive cells (K562-BAFF-R, NALM6, RS4, MEC1, JEKO1) (human, UniProt Q96RJ3 1-184)
# T1 sequence: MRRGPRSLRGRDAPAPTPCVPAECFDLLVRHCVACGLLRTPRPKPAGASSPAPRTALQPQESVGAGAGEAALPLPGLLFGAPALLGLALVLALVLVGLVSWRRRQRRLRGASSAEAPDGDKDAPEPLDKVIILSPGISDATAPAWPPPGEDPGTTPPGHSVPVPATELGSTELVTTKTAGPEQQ
# T2: His-tagged human BAFF-R antigen (BAR-H52H3, Acro) (human, UniProt Q96RJ3 7-71, limits assumed)
# T2 construct: Bought protein used in BLI; not shown: His tag
# T2 sequence: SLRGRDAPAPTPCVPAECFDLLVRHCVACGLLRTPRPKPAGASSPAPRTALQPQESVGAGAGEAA
# B1: 0205-1, VH-Fab-Fc 1+1 α-BAFF-R VH×α-CD3 Fab bispecific antibody (bispecific antibody, human IgG4 S228P, lambda, F234A L235A)
# heavy: EVQLVESGGGLVQPKGSLKLSCAASGFTFNTYAMNWVRQAPGKGLEWVARIRSKYNNYATYYADSVKDRFTISRDDSQSILYLQMNNLKTEDTAMYYCVRHGNFGNSYVSWFAYWGQGTLVTVSSASTKGPSVFPLAPCSRSTSESTAALGCLVKDYFPEPVTVSWNSGALTSGVHTFPAVLQSSGLYSLSSVVTVPSSSLGTKTYTCNVDHKPSNTKVDKRVESKYGPPCPPCPAPEAAGGPSVFLFPPKPKDTLMISRTPEVTCVVVDVSQEDPEVQFNWYVDGVEVHNAKTKPREEQFNSTYRVVSVLTVLHQDWLNGKEYKCKVSNKGLPSSIEKTISKAKGQPREPQVYTLPPCQEEMTKNQVSLWCLVKGFYPSDIAVEWESNGQPENNYKTTPPVLDSDGSFFLYSRLTVDKSRWQEGNVFSCSVMHEALHNHYTQKSLSLSLGK
# light: QAVVTQESALTTSPGETVTLTCRSSTGAVTTSNYANWVQEKPDHLFTGLIGGTNKRAPGVPARFSGSLIGDKAALTITGAQTEDEAIYFCALWYSNLWVFGGGTKLTVLGQPKAAPSVTLFPPSSEELQANKATLVCLISDFYPGAVTVAWKADSSPVKAGVETTTPSKQSNNKYAASSYLSLTPEQWKSHKSYSCQVTHEGSTVEKTVAPTECS
# chain: EVQLVESGGGVVQPGRSLRLTCAASGFTFSTSGMYWIRQAPGKGLEWVSYISSSSSTIYYADSVKGRFTISRDNSKNTLYLQMNSLRAEDTAVYYCVTQSCGAGKCYPGVWGQGTTVTVSSESKYGPPCPPCPAPEAAGGPSVFLFPPKPKDTLMISRTPEVTCVVVDVSQEDPEVQFNWYVDGVEVHNAKTKPREEQFNSTYRVVSVLTVLHQDWLNGKEYKCKVSNKGLPSSIEKTISKAKGQPREPQVCTLPPSQEEMTKNQVSLSCAVKGFYPSDIAVEWESNGQPENNYKTTPPVLDSDGSFFLVSRLTVDKSRWQEGNVFSCSVMHEALHNHYTQKSLSLSLGK
# notes: IgG4 Fc with S228P/F234A/L235A, knobs on the CD3 side, holes on the BAFF-R side
# B2: 0205-3, VH2-Fab2-Fc 2+2 α-BAFF-R VH×α-CD3 Fab bispecific antibody (bispecific antibody)
# heavy: not shown
# light: QAVVTQESALTTSPGETVTLTCRSSTGAVTTSNYANWVQEKPDHLFTGLIGGTNKRAPGVPARFSGSLIGDKAALTITGAQTEDEAIYFCALWYSNLWVFGGGTKLTVLGQPKAAPSVTLFPPSSEELQANKATLVCLISDFYPGAVTVAWKADSSPVKAGVETTTPSKQSNNKYAASSYLSLTPEQWKSHKSYSCQVTHEGSTVEKTVAPTECS
# notes: To be checked
# B3: 0205-2, VH2-Fab-Fc 2+1 α-BAFF-R VH×α-CD3 Fab bispecific antibody (bispecific antibody)
# heavy 1: EVQLVESGGGVVQPGRSLRLTCAASGFTFSTSGMYWIRQAPGKGLEWVSYISSSSSTIYYADSVKGRFTISRDNSKNTLYLQMNSLRAEDTAVYYCVTQSCGAGKCYPGVWGQGTTVTVSSGGGGSGGGGSEVQLVESGGGLVQPKGSLKLSCAASGFTFNTYAMNWVRQAPGKGLEWVARIRSKYNNYATYYADSVKDRFTISRDDSQSILYLQMNNLKTEDTAMYYCVRHGNFGNSYVSWFAYWGQGTLVTVSSASTKGPSVFPLAPCSRSTSESTAALGCLVKDYFPEPVTVSWNSGALTSGVHTFPAVLQSSGLYSLSSVVTVPSSSLGTKTYTCNVDHKPSNTKVDKRVESKYGPPCPPCPAPEAAGGPSVFLFPPKPKDTLMISRTPEVTCVVVDVSQEDPEVQFNWYVDGVEVHNAKTKPREEQFNSTYRVVSVLTVLHQDWLNGKEYKCKVSNKGLPSSIEKTISKAKGQPREPQVYTLPPCQEEMTKNQVSLWCLVKGFYPSDIAVEWESNGQPENNYKTTPPVLDSDGSFFLYSRLTVDKSRWQEGNVFSCSVMHEALHNHYTQKSLSLSLGK
# light: QAVVTQESALTTSPGETVTLTCRSSTGAVTTSNYANWVQEKPDHLFTGLIGGTNKRAPGVPARFSGSLIGDKAALTITGAQTEDEAIYFCALWYSNLWVFGGGTKLTVLGQPKAAPSVTLFPPSSEELQANKATLVCLISDFYPGAVTVAWKADSSPVKAGVETTTPSKQSNNKYAASSYLSLTPEQWKSHKSYSCQVTHEGSTVEKTVAPTECS
# heavy 2: EVQLVESGGGVVQPGRSLRLTCAASGFTFSTSGMYWIRQAPGKGLEWVSYISSSSSTIYYADSVKGRFTISRDNSKNTLYLQMNSLRAEDTAVYYCVTQSCGAGKCYPGVWGQGTTVTVSSESKYGPPCPPCPAPEAAGGPSVFLFPPKPKDTLMISRTPEVTCVVVDVSQEDPEVQFNWYVDGVEVHNAKTKPREEQFNSTYRVVSVLTVLHQDWLNGKEYKCKVSNKGLPSSIEKTISKAKGQPREPQVCTLPPSQEEMTKNQVSLSCAVKGFYPSDIAVEWESNGQPENNYKTTPPVLDSDGSFFLVSRLTVDKSRWQEGNVFSCSVMHEALHNHYTQKSLSLSLGK
# notes: To be checked
# B4: SP34 monoclonal antibody (anti-CD3) (antibody, human IgG4 S228P, lambda, V domains shown)
# VH: EVQLVESGGGLVQPKGSLKLSCAASGFTFNTYAMNWVRQAPGKGLEWVARIRSKYNNYATYYADSVKDRFTISRDDSQSILYLQMNNLKTEDTAMYYCVRHGNFGNSYVSWFAYWGQGTLVTVSS
# VL: QAVVTQESALTTSPGETVTLTCRSSTGAVTTSNYANWVQEKPDHLFTGLIGGTNKRAPGVPARFSGSLIGDKAALTITGAQTEDEAIYFCALWYSNLWVFGGGTKLTVLG
# notes: also called α-CD3 monoclonal antibody
# How the values were obtained:
# [1] = target: T3, His-tagged human CD3E&G (CDG-H52W6, Acro) (human, UniProt P07766 23-126; P09693 23-111); test: BLI (ForteBio Octet), His-tagged antigen on HIS1K sensor, antibody in solution
# T3 construct: Bought His-tagged heterodimer; also called CD3E&G heterodimer complex
# T3 sequence (P07766 23-126, chain 1 of 2): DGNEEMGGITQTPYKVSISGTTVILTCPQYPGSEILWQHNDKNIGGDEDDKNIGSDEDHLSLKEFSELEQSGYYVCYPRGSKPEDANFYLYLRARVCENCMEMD
# T3 sequence (P09693 23-111, chain 2 of 2): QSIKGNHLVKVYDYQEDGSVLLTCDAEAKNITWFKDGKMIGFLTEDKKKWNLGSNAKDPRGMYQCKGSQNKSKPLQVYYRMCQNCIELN
# [2] = target: T4, His-tagged human CD3E&D (CDD-H52W1, Acro) (human, UniProt P07766 23-126; P04234 22-105); test: as above
# T4 construct: Bought His-tagged heterodimer; also called CD3E&D heterodimer complex
# T4 sequence (P07766 23-126, chain 1 of 2): as the sequence (P07766 23-126, chain 1 of 2) above
# T4 sequence (P04234 22-105, chain 2 of 2): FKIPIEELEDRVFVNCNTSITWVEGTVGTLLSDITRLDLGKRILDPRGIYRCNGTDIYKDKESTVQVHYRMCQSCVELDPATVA
# [3] = target: T1, BAFF-R on the surface of …; test: cell-based or functional assay
# [4] = target: T1, BAFF-R on the surface of …; test: cell-based or functional assay; remark: listed apart in the source
# [5] = target: T2, His-tagged human BAFF-R antigen …; test: BLI (ForteBio Octet), His-tagged antigen on HIS1K sensor, antibody in solution
# [6] = target: T1, BAFF-R on the surface of …; test: cell-based or functional assay; remark: listed apart in the source
# [7] = target: T1, BAFF-R on the surface of …; test: cell-based or functional assay; remark: listed apart in the source
# [8] = target: T1, BAFF-R on the surface of …; test: cell-based or functional assay; remark: listed apart in the source
# [9] = target: T1, BAFF-R on the surface of …; test: cell-based or functional assay; remark: listed apart in the source
Binder,Kd [1] [nM],koff [1] [s⁻¹],kon [1] [M⁻¹ s⁻¹],Kd [2] [nM],koff [2] [s⁻¹],kon [2] [M⁻¹ s⁻¹],"TDCC reporter gene cell activation by Jeko-1, EC50 [3] [nM]","TDCC reporter gene cell activation by Jeko-1, top [3]","killing of Jeko-1 cells by PBMC (Donor 605C), 24hr, top (%) [4] [%]","killing of Jeko-1 cells by PBMC (Donor 605C), 48hr, top (%) [4] [%]",Kd [5] [nM],koff [5] [s⁻¹],kon [5] [M⁻¹ s⁻¹],"killing of Jeko-1 cells by PBMC (Donor 301C), 24hr, top (%) [6] [%]","killing of Jeko-1 cells by PBMC (Donor 301C), 48hr, top (%) [6] [%]","TDCC reporter gene cell activation by K562-BAFF-R, EC50 [7] [nM]","TDCC reporter gene cell activation by K562-BAFF-R, top [7]","TDCC reporter gene cell activation by Nalm6, EC50 [8] [nM]","TDCC reporter gene cell activation by Nalm6, top [8]","TDCC reporter gene cell activation by Mec-1, EC50 [9] [nM]",further results
B1,6.68,0.0278,4.16e+06,10.7,0.00811,759000,11.7,864,-12.6,-12.8,1.78,0.00245,1.38e+06,-22.3,-12.2,0.059,9430,3.2,381,7.31,"TDCC reporter gene cell activation by Mec-1, top [9]: 793"
B2,9.03,0.00251,277000,10.6,0.0032,302000,0.046,1230,6.34,102,1.27,0.00136,1.07e+06,28.5,102,0.041,10900,0.021,1870,0.047,"killing of Jeko-1 cells by PBMC (Donor 605C), 24hr, EC50(pM) [4]: 2.48 pM; killing of Jeko-1 cells by PBMC (Donor 605C), 48hr, EC50(pM) [4]: 2.81 pM; killing of Jeko-1 cells by PBMC (Donor 301C), 24hr, EC50(pM) [6]: 18 pM; killing of Jeko-1 cells by PBMC (Donor 301C), 48hr, EC50(pM) [6]: 8.78 pM; TDCC reporter gene cell activation by Mec-1, top [9]: 1490"
B3,11.1,0.00291,262000,10.3,0.00314,306000,0.23,1650,39,101,1.12,0.000976,875000,57.8,99.9,0.054,12300,0.068,2430,0.5,"killing of Jeko-1 cells by PBMC (Donor 605C), 24hr, EC50(pM) [4]: 13.1 pM; killing of Jeko-1 cells by PBMC (Donor 605C), 48hr, EC50(pM) [4]: 3.58 pM; killing of Jeko-1 cells by PBMC (Donor 301C), 24hr, EC50(pM) [6]: 52.8 pM; killing of Jeko-1 cells by PBMC (Donor 301C), 48hr, EC50(pM) [6]: 9.74 pM; TDCC reporter gene cell activation by Mec-1, top [9]: 2930"
B4,7.87,0.0029,369000,6.38,0.00301,473000,–,–,–,–,–,–,–,–,–,–,–,–,–,–,–
